Reference: patent US20240117018A1

Experiments:
Assay in all cases: cell-based or functional assay
[1] = target: MuLV envelope (negative control pseudovirus) (MuLV)
[2] = target: HIV-1 Env pseudovirus 263-8 (HIV-1)
[3] = target: HIV-1 Env pseudovirus 3415.v1.c1 (HIV-1)
[4] = target: HIV-1 Env pseudovirus T257-31 (HIV-1)
[5] = target: Env of HIV-1 pseudovirus 3415.v1.c1 (HIV-1)
[6] = target: PVO.4 Env pseudovirus (HIV-1)
[7] = target: ZM197M.PB7 Env pseudovirus (HIV-1)
[8] = target: AC10.0.29 Env pseudovirus (HIV-1)
[9] = target: 1394C9G1(Rev-) Env pseudovirus (HIV-1)
[10] = target: ZM249M.PL1 Env pseudovirus (HIV-1)
[11] = target: 62357_14_D3_4589 Env pseudovirus (HIV-1)
[12] = target: 0260.v5.c36 Env pseudovirus (HIV-1)
[13] = target: 6240_08_TA5_4622 Env pseudovirus (HIV-1)
[14] = target: 1006_11_C3_1601 Env pseudovirus (HIV-1)
[15] = target: CAAN5342.A2 Env pseudovirus (HIV-1)
[16] = target: CNE20 Env pseudovirus (HIV-1)
[17] = target: Ce703010054_2A2 Env pseudovirus (HIV-1)
[18] = target: ZM247v1(Rev-) Env pseudovirus (HIV-1)
[19] = target: Du156.12 Env pseudovirus (HIV-1)
[20] = target: 7030102001E5(Rev-) Env pseudovirus (HIV-1)
[21] = target: CAP45.2.00.G3 Env pseudovirus (HIV-1)
[22] = target: MS208.A1 Env pseudovirus (HIV-1)
[23] = target: 6535.3 Env pseudovirus (HIV-1)
[24] = target: Q461.e2 Env pseudovirus (HIV-1)
[25] = target: CNE17 Env pseudovirus (HIV-1)
[26] = target: RHPA4259.7 Env pseudovirus (HIV-1)
[27] = target: ZM214M.PL15 Env pseudovirus (HIV-1)
[28] = target: ZM233M.PB6 Env pseudovirus (HIV-1)
[29] = target: 249M B10 Env pseudovirus (HIV-1)
[30] = target: TRJO4551.58 Env pseudovirus (HIV-1)
[31] = target: ZM135M.PL10a Env pseudovirus (HIV-1)
[32] = target: 928-28 Env pseudovirus (HIV-1)
[33] = target: Du172.17 Env pseudovirus (HIV-1)
[34] = target: 246F C1G Env pseudovirus (HIV-1)
[35] = target: 263-8 Env pseudovirus (HIV-1)
[36] = target: WITO4160.33 Env pseudovirus (HIV-1)
[37] = target: CNE21 Env pseudovirus (HIV-1)
[38] = target: Q842.d12 Env pseudovirus (HIV-1)
[39] = target: CNE30 Env pseudovirus (HIV-1)
[40] = target: CNE58 Env pseudovirus (HIV-1)
[41] = target: Ce1176_A3 Env pseudovirus (HIV-1)
[42] = target: Ce704809221_1B3 Env pseudovirus (HIV-1)
[43] = target: MuLV envelope (negative control pseudovirus)
[44] = target: HIV-1 Env pseudovirus CNE8 (HIV-1)

N49P7.1 (antibody)
IC50 (neutralisation, TZM.bl cells) [1]: > 50 µg/mL | IC80 (neutralisation, TZM.bl cells) [1]: > 50 µg/mL | MPI [1]: 4

VRC01 (antibody)
IC50 (Titer in TZM.bl cells) [2]: 0.2 µg/mL | IC80 (Titer in TZM.bl cells) [2]: 0.55 µg/mL | IC50 (Titer in TZM.bl cells) [3]: 0.06 µg/mL | IC80 (Titer in TZM.bl cells) [3]: 0.15 µg/mL | IC50 (Titer in TZM.bl cells) [4]: 2.8 µg/mL | IC80 (Titer in TZM.bl cells) [4]: 8.66 µg/mL

10-1074 (antibody)
IC50 [5]: > 50 µg/mL | IC80 [5]: > 50 µg/mL

PGT121 (antibody)
IC50 [6]: 0.098 µg/mL | IC80 [6]: 0.343 µg/mL | IC50 [7]: > 50 µg/mL | IC80 [7]: > 50 µg/mL | IC50 [8]: 0.024 µg/mL | IC80 [8]: 0.073 µg/mL | IC50 [9]: 0.264 µg/mL | IC80 [9]: 1.95 µg/mL | IC50 [10]: > 50 µg/mL | IC80 [10]: > 50 µg/mL | IC50 [11]: 2.6 µg/mL | IC80 [11]: > 50 µg/mL | IC50 [12]: 0.053 µg/mL | IC80 [12]: 0.197 µg/mL | IC50 [13]: 0.033 µg/mL | IC80 [13]: 0.127 µg/mL | IC50 [14]: 0.002 µg/mL | IC80 [14]: 0.007 µg/mL | IC50 [15]: 0.007 µg/mL | IC80 [15]: 0.023 µg/mL | IC50 [16]: < 0.001 µg/mL | IC80 [16]: 0.002 µg/mL | IC50 [17]: > 50 µg/mL | IC80 [17]: > 50 µg/mL | IC50 [18]: 0.028 µg/mL | IC80 [18]: 0.082 µg/mL | IC50 [19]: 0.004 µg/mL | IC80 [19]: 0.017 µg/mL | IC50 [20]: 0.009 µg/mL | IC80 [20]: 0.027 µg/mL | IC50 [21]: 1.63 µg/mL | IC80 [21]: > 50 µg/mL | IC50 [22]: > 50 µg/mL | IC80 [22]: > 50 µg/mL | IC50 [23]: 0.002 µg/mL | IC80 [23]: 0.008 µg/mL | IC50 [24]: > 50 µg/mL | IC80 [24]: > 50 µg/mL | IC50 [25]: 7.6 µg/mL | IC80 [25]: > 50 µg/mL | IC80 [26]: 0.035 µg/mL | IC50 [27]: 0.46 µg/mL | IC80 [27]: 2.04 µg/mL | IC50 [28]: 3.69 µg/mL | IC50 [29]: > 50 µg/mL | IC80 [29]: > 50 µg/mL | IC50 [30]: 1.31 µg/mL | IC80 [30]: 37.9 µg/mL | IC50 [31]: 0.716 µg/mL | IC80 [31]: 5.25 µg/mL | IC50 [32]: 44.2 µg/mL | IC80 [32]: > 50 µg/mL | IC50 [33]: 0.033 µg/mL | IC80 [33]: 0.257 µg/mL | IC50 [34]: 0.041 µg/mL | IC80 [34]: 0.14 µg/mL | IC50 [35]: 0.648 µg/mL | IC80 [35]: 3.96 µg/mL | IC50 [36]: 0.334 µg/mL | IC80 [36]: 2.35 µg/mL | IC50 [37]: 0.007 µg/mL | IC80 [37]: 0.035 µg/mL | IC50 [38]: 0.005 µg/mL | IC50 [39]: 0.078 µg/mL | IC80 [39]: 0.291 µg/mL | IC50 [40]: > 50 µg/mL | IC80 [40]: > 50 µg/mL | IC50 [41]: 0.013 µg/mL | IC80 [41]: 0.035 µg/mL | IC50 [42]: 0.025 µg/mL | IC80 [42]: 0.126 µg/mL

N49P7 (antibody)
IC50 (neutralisation, TZM.bl cells) [1]: > 50 µg/mL | IC80 (neutralisation, TZM.bl cells) [1]: > 50 µg/mL | MPI [1]: 9

N49P19 (antibody)
neutralization IC50 [43]: > 50 µg/mL | neutralization IC80 [43]: > 50 µg/mL | neutralization MPI [43]: 0

N49P9 (antibody)
neutralization IC50 [43]: > 50 µg/mL | neutralization IC80 [43]: > 50 µg/mL | neutralization MPI [43]: 13

VRC07 (antibody)
IC50 (Titer in TZM.bl cells) [44]: 0.45 µg/mL | IC80 (Titer in TZM.bl cells) [44]: 1.56 µg/mL
